Test results published in US20130150294A1.

Assays:
[1] = target: EYFP-rat α1 mutant (D371E) (rat) (UniProt P06685); assay: FRET by acceptor photobleaching, 20 TCN23-19 cells in three experiments
EYFP-rat α1 (rat) = EYFP-rat α1 (rat) (UniProt P06685); assay: FRET by acceptor photobleaching, 16 LLC-PK1 cells in six experiments

## Src-ECFP
[1]
  FRET efficiency: 10.4 to 15.6
  FRET efficiency (mean): 13.2
EYFP-rat α1 (rat)
  FRET efficiency: 8.1 to 18.8
  FRET efficiency (mean): 13.2
